In assay [1] the target is T1, soluble recombinant human CD39 protein (Homo sapiens, UniProt P49961).
T1 construct: made in house; host or cells: CHO cells
T1 sequence (P49961 with tags, fused parts or gaps): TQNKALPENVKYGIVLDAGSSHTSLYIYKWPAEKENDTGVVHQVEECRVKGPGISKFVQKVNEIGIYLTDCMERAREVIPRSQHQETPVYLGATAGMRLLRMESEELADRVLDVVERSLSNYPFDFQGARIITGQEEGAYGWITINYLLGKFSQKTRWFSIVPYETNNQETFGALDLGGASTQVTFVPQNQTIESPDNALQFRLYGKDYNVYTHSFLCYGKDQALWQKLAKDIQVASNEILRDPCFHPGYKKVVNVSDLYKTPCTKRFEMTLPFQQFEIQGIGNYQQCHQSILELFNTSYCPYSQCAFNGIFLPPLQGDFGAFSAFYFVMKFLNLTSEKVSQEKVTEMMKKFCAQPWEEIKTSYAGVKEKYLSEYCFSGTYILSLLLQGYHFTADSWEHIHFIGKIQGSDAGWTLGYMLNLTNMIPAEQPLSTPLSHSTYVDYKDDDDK
Description: Inhibition of the enzymatic (ATPase) activity of soluble CD39, Cell Titer Glo. The assay is classed as biochemical. The protocol:
The ability of an antibody to inhibit soluble recombinant human CD39 protein can be tested by detecting ATP after incubating test antibody with soluble CD39 protein (e.g., the CD39 protein having the amino acid sequence of SEQ ID NO: 5, as produced in Example 1, optionally further comprising a purification tag or other functional or non-functional non-CD39-derived amino acid sequence). See, e.g., Example 1. Briefly, ATP can be quantified using the Cell Titer Glo™ (Promega), in an assay in which dose ranges of test antibody are incubated with soluble recombinant human CD39 protein described in Example 1, for 1 hour at 37° C. 20 μM ATP are added to the plates for 30 additional minutes at 37° C. before addition of CTG reagent. Emitted light is quantified using an Enspire™ luminometer after a short incubation period of 5 min in the dark.
The inhibition by antibodies of the enzymatic activity of soluble CD39 protein produced was evaluated using Cell Titer Glo™ (Promega, reference G7571) that allows assessment of ATP hydrolysis through use of a reagent that generates a luminescent signal proportional to the amount of ATP present. In this way, inhibition of the soluble-CD39-mediated ATP hydrolysis can be assessed. Briefly, dose ranges of anti-CD39 antibodies from 100 μg/ml to 6×10^−3 μg/ml were incubated with 400 ng/ml of soluble recombinant human CD39 protein having the amino acid sequence described in the Methods section (SEQ ID NO: 54), for 1h at 37° C. 20 μM ATP was added to the plates for 30 additional minutes at 37° C. before addition of CTG (Cell Titer Glo) reagent. Emitted light was quantified using an Enspire™ luminometer after a short incubation period of 5 min in the dark. Anti-CD39 antibody efficacy was determined by comparing emitted light in presence of antibody with ATP alone (maximal light emission) and ATP together with soluble CD39 protein (minimal light emission).
On the technique in general: In ATP-based viability assays light output follows the ATP content of the culture.

Assay [2] addresses T2, CD39 expressed by Ramos human lymphoma cells (Homo sapiens, UniProt P49961).
T2 construct: host or cells: Ramos human lymphoma cells
T2 sequence (P49961 1-510): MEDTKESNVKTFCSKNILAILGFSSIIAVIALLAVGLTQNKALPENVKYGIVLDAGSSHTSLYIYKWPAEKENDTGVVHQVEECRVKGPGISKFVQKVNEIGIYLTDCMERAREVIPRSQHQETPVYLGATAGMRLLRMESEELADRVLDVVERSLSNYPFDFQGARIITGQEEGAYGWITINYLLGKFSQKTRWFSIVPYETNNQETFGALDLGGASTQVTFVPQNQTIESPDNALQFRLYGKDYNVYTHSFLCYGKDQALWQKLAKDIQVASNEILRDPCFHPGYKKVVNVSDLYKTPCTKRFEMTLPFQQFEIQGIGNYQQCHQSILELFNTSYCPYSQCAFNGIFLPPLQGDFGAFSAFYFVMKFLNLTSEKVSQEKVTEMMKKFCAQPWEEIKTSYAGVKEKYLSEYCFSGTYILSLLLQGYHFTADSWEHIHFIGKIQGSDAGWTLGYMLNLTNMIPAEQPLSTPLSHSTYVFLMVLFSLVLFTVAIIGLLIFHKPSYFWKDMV
Kind of assay: Inhibition of cellular CD39 ATPase activity in Ramos cells. The assay is classed as cell-based. The protocol: (§1) The inhibition of the CD39 enzymatic activity in CD39-expressing cells by antibodies was evaluated using Cell Titer Glo™ (Promega, reference G7571) that allows assessment of ATP hydrolysis through use of a reagent that generates a luminescent signal proportional to the amount of ATP present. The assay was thus designed to permit assessment of the inhibition of ATP hydrolyzed by CD39 in the cell culture supernatant. Briefly, 5×10^4 Ramos human lymphoma cells, 5×10^3 human CD39-, cynomolgus CD39—and mouse CD39-expressing CHO cells, were incubated 1 hour at 37° C. with anti-CD39 antibodies from 30 μg/ml to 5×10^−4 μg/ml. Cells were then incubated with 20 μM ATP for 1 additional hour at 37° C. Plates were centrifuged for 2 min at 400 g and 50 μl cell supernatant are transferred in a luminescence microplate (white wells). 50 μl CellTiter-Glo® Reagent (CTG) was added to the supernatant and emitted light was quantified after a 5 min incubation in the dark using a Enspire™ luminometer. Anti-CD39 antibody efficacy was determined by comparing emitted light in presence of antibody with ATP alone (maximal light emission) and ATP together with cells (minimal light emission).

A further assay has as its target T3, human CD39 (CHO-huCD39) (Homo sapiens, UniProt P49961).
T3 construct: expressed in transfected cells; host or cells: CHO cells
T3 sequence (P49961 1-510): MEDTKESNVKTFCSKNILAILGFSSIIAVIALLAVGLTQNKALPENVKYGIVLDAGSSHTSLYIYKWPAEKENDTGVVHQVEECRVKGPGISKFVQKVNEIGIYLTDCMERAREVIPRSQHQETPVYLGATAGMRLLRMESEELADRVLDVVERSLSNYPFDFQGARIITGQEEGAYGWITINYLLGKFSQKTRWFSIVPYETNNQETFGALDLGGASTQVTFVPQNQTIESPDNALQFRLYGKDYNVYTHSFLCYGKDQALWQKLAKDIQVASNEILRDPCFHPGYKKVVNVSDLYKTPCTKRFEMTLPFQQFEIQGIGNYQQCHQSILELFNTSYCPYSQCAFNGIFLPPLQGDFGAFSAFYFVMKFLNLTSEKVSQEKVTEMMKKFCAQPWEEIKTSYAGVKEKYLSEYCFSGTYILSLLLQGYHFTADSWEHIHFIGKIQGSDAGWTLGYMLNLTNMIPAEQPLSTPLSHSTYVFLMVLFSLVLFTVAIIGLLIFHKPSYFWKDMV
Description: Inhibition of cellular CD39 ATPase activity in CHO-huCD39 cells. The assay is classed as cell-based. The protocol:
as §1

The subject of assay [3] is cynomolgus CD39 (CHO-cyCD39). Description: Inhibition of cellular CD39 ATPase activity in CHO-cyCD39 cells. The format is cell-based, cynomolgus (Macaca fascicularis). The protocol: as §1
The target in assay [4] is T4, human Ramos lymphoma cells (Homo sapiens, UniProt P49961).
T4 construct: host or cells: Ramos human lymphoma cells
T4 sequence (P49961 1-510): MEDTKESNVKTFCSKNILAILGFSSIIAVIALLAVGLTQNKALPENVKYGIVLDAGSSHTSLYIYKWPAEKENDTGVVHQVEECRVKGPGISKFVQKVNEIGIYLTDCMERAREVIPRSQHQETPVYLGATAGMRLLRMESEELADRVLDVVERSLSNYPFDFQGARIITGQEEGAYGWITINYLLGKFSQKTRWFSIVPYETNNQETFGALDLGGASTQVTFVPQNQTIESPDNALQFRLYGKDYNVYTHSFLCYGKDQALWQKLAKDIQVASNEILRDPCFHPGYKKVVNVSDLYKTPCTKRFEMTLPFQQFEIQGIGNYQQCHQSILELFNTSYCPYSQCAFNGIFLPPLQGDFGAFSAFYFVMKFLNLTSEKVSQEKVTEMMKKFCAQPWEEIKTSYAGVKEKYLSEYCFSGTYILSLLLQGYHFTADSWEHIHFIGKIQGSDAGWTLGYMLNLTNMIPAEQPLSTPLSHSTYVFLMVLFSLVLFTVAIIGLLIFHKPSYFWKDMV
Description: Antibody titration on Ramos cells by flow cytometry. The assay is classed as binding. How it is done: (§2) Cells were incubated with various concentration of unlabeled anti-CD39 antibody from 30 μg/ml to 5×10^−4 μg/ml, for 30 minutes at 4° C. After washes, cells were incubated with Goat anti-mouse H+L labeled secondary antibody for 30 min at 4° C.
In general terms: Flow cytometry measures light scatter and fluorescence of single cells or particles in a stream.

Assay [5] concerns the target T5, CHO cells expressing human CD39 (CHO-huCD39) (Homo sapiens, UniProt P49961).
T5 construct: expressed in transfected cells; host or cells: CHO cells
T5 sequence (P49961 1-510): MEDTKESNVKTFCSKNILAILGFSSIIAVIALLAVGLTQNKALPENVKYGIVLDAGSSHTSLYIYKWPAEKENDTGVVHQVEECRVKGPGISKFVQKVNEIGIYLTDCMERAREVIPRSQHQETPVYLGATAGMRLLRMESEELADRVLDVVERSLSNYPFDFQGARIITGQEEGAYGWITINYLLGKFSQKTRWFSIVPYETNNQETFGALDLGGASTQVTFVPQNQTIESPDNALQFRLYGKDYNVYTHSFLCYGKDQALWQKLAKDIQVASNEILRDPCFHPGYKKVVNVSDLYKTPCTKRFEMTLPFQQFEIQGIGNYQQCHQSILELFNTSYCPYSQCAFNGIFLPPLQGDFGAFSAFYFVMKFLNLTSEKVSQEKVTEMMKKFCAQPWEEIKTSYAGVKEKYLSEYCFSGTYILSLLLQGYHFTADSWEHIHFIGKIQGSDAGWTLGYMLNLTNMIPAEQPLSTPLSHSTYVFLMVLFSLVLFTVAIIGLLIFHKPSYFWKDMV
Description: Antibody titration on CHO-huCD39 cells by flow cytometry. The format is binding. How it is done:
as §2

In the next assay the target is T6, human CD39 (Homo sapiens, UniProt P49961).
T6 sequence (P49961 1-510): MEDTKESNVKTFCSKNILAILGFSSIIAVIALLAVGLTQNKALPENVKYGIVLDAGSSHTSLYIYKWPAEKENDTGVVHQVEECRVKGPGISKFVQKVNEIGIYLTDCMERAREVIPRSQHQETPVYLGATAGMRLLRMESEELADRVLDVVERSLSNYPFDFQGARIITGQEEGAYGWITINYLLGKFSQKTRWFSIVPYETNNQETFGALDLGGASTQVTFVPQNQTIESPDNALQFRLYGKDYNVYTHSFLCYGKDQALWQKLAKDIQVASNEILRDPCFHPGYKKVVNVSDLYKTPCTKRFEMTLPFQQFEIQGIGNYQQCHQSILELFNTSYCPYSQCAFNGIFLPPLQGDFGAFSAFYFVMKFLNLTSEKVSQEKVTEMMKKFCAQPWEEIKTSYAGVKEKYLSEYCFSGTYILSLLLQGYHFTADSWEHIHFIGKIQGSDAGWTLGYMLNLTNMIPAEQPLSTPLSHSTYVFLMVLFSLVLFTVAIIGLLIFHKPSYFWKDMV
Kind of assay: ELISA titration on recombinant human CD39. The assay is classed as binding. How it is done: Wells were washed in TBS Tween 20, and further saturated 2H at RT in TBS Blocking buffer. Dose range concentration of primary antibody was incubated in TBS blocking buffer for 2h at RT. Wells were washed in TBS Tween 20. […] Optical density was measured on Enspire™ at OD=450.
Background: An ELISA detects its analyte on a solid surface through an enzyme-linked reagent.

Entries after “also recorded” stand apart in the source; their conditions may differ.

B1: I-394: anti-CD39 antibody, VH SEQ ID NO: 6, VL SEQ ID NO: 7; heavy/light chains SEQ ID NOS: 52 and 53 (antibody)
heavy: EVQLQQSGPELVKPGASVKMSCKASGYTFTDYNMHWVKQSHGRTLEWIGYIVPLNGGSTFNQKFKGRATLTVNTSSRTAYMELRSLTSEDSAAYYCARGGTRFAYWGQGTLVTVSAASTKGPSVFPLAPSSKSTSGGTAALGCLVKDYFPEPVTVSWNSGALTSGVHTFPAVLQSSGLYSLSSVVTVPSSSLGTQTYICNVNHKPSNTKVDKRVEPKSCDKTHTCPPCPAPEAEGAPSVFLFPPKPKDTLMISRTPEVTCVVVDVSHEDPEVKFNWYVDGVEVHNAKTKPREEQYNSTYRVVSVLTVLHQDWLNGKEYKCKVSNKALPSSIEKTISKAKGQPREPQVYTLPPSREEMTKNQVSLTCLVKGFYPSDIAVEWESNGQPENNYKTTPPVLDSDGSFFLYSKLTVDKSRWQQGNVFSCSVMHEALHNHYTQKSLSLSPGK
light: DIVLTQSPASLAVSLGQRATISCRASESVDNFGVSFMYWFQQKPGQPPNLLIYGASNQGSGVPARFRGSGSGTDFSLNIHPMEADDTAMYFCQQTKEVPYTFGGGTKLEIKRTVAAPSVFIFPPSDEQLKSGTASVVCLLNNFYPREAKVQWKVDNALQSGNSQESVTEQDSKDSTYSLSSTLTLSKADYEKHKVYACEVTHQGLSSPVTKSFNRGEC
modifications: Chimeric homo sapiens mus musculus
B1: the “maximum inhibition achieved, soluble CD39 protein” value in assay [1] is recorded as 74.9%. For the same molecule, the “inhibition of the enzymatic (ATPase) activity of soluble CD39 protein” value in assay [1] (400 ng/ml soluble CD39, 20 μM ATP) is reported as “strong inhibition; also recorded: inhibits; also recorded: highly potent”. The “inhibition of ATPase activity of soluble CD39 when antibody is spiked into negative hybridoma supernatants” value in assay [1] (added to hybridoma supernatant) is reported as “did not restore”. Besides, the “inhibition of ATPase activity of soluble CD39 after purification from the negative supernatant” value in assay [1] (purified with Protein A coated beads) is reported as “again able to inhibit”. For the same molecule, in assay [2], the “blocking CD39 enzymatic activity in tumor (Ramos) cells” value is “highly potent” and the “potency in Ramos cells compared to all other antibodies tested” value is recorded as “greater potency”. Moreover, in assay [2] (Ramos cells), the “maximum inhibition achieved, cellular CD39” value was 81.6%. The “blocking CD39 enzymatic activity in cells expressing human CD39” value with human CD39 (CHO-huCD39) is reported as “blocks; also recorded: highly potent”. The “blocking CD39 enzymatic activity in cells expressing cynomolgus CD39” value in assay [3] is “blocks; also recorded: highly potent”. In assay [4], the “binding to Ramos lymphoma cells” value is “bound; also recorded: binds”. For the same molecule, in assay [5], the “binding to cells expressing human CD39” value is “bound; also recorded: binds”. Further, in the assay with human CD39, the “binding to human CD39 in ELISA” value is reported as “bound; also recorded: binds”.

These data come from patent US20230099801A1, “RESTORATION OF T CELL ACTIVITY VIA THE CD39/CD73 AXIS” (INNATE PHARMA, priority 2017, published 2023).
